What was measured:
[1] = tested on: HeLa Kyoto; assay: solubility change mitosis vs G1/S (difference of NP-40 vs SDS log2 ratios) (log2 ratio difference); higher = more soluble in mitosis
[2] = tested on: HeLa Kyoto; assay: thermal stability score vs G1/S (z-score of summed log2 fold changes over temperatures); higher = more thermally stable than in G1/S
[3] = tested on: HeLa Kyoto; assay: solubility in G1/S (NP-40 vs SDS abundance) (log2 ratio); higher = more soluble; details: cell cycle stage: G1/S
[4] = tested on: HeLa Kyoto; assay: melting temperature (median over replicates), in situ; higher = more thermally stable
[5] = cell cycle stage: early G1 (4.5 h after nocodazole release)
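For melting temperature (median over replicates), in situ in this document: HeLa Kyoto cells synchronized by double thymidine or nocodazole block, proteins quantified by TMT10plex mass spectrometry, three independent biological replicates.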
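For solubility change mitosis vs G1/S (difference of NP-40 vs SDS log2 ratios) in this document: synchronized HeLa Kyoto cells (double thymidine block for G1/S, nocodazole release for mitosis), protein amounts in NP-40 versus SDS lysates quantified by mass spectrometry, three biological replicates.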
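For solubility in G1/S (NP-40 vs SDS abundance) in this document: HeLa Kyoto cells arrested at G1/S by double thymidine block, proteins quantified by TMT10plex mass spectrometry in mild NP-40 versus SDS extracts, three biological replicates.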
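For thermal stability score vs G1/S (z-score of summed log2 fold changes over temperatures) in this document: synchronized HeLa Kyoto cells, proteins quantified by TMT10plex mass spectrometry, three biological replicates, mitosis taken 0.5 h after nocodazole release, G1/S directly after double thymidine block.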

Sequence | solubility change mitosis (log2) [1] | thermal stability score [2, 5] | thermal stability score ([2]; cell cycle stage: mitosis) | solubility in G1/S (log2) [3] | melting temperature ([4]; cell cycle stage: G1/S) [°C] | melting temperature ([4]; cell cycle stage: mitosis) [°C]
MDEQAGPGVFFSNNHPGAGGAKGLGPLAEAAAAGDGAAAAGAARAQYSLPGILHFLQHEWARFEVERAQWEVERAELQAQIAFLQGERKGQENLKKDLVRRIKMLEYALKQERAKYHKLKYGTELNQGDMKPPSYDSDEGNETEVQPQQNSQLMWKQGRQLLRQYLQEVGYTDTILDVKSKRVRALLGFSSDVTDREDDKNQDSVVNGTEAEVKETAMIAKSELTDSASVLDNFKFLESAAADFSDEDEDDDVDGREKSVIDTSTIVRKKALPDSGEDRDTKEALKEFDFLVTSEEGDNESRSAGDGTDWEKEDQCLMPEAWNVDQGVITKLKEQYKKERKGKKGVKRPNRSKLQDMLANLRDVDELPSLQPSVGSPSRPSSSRLPEHEINRADEVEALTFPPSSGKSFIMGADEALESELGLGELAGLTVANEADSLTYDIANNKDALRKTWNPKFTLRSHFDGIRALAFHPIEPVLITASEDHTLKMWNLQKTAPAKKSTSLDVEPIYTFRAHKGPVLCVVMSSNGEQCYSGGTDGLIQGWNTTNPNIDPYDSYDPSVLRGPLLGHTDAVWGLAYSAAHQRLLSCSADGTLRLWNTTEVAPALSVFNDTKELGIPASVDLVSSDPSHMVASFSKGYTSIFNMETQQRILTLESNVDTTANSSCQINRVISHPTLPISITAHEDRHIKFYDNNTGKLIHSMVAHLEAVTSLAVDPNGLYLMSGSHDCSIRLWNLESKTCIQEFTAHRKKFEESIHDVAFHPSKCYIASAGADALAKVFV [STRN] | -0.134 | 0.0936 | -0.463 | 0.0488 | 52.4 | 52.3
MLQQVPENINFPAEEEKILEFWTEFNCFQECLKQSKHKPKFTFYDGPPFATGLPHYGHILAGTIKDIVTRYAHQSGFHVDRRFGWDCHGLPVEYEIDKTLGIRGPEDVAKMGITEYNNQCRAIVMRYSAEWKSTVSRLGRWIDFDNDYKTLYPQFMESVWWVFKQLYDKGLVYRGVKVMPFSTACNTPLSNFESHQNYKDVQDPSVFVTFPLEEDETVSLVAWTTTPWTLPSNLAVCVNPEMQYVKIKDVARGRLLILMEARLSALYKLESDYEILERFPGAYLKGKKYRPLFDYFLKCKENGAFTVLVDNYVKEEEGTGVVHQAPYFGAEDYRVCMDFNIIRKDSLPVCPVDASGCFTTEVTDFAGQYVKDADKSIIRTLKEQGRLLVATTFTHSYPFCWRSDTPLIYKAVPSWFVRVENMVDQLLRNNDLCYWVPELVREKRFGNWLKDARDWTISRNRYWGTPIPLWVSDDFEEVVCIGSVAELEELSGAKISDLHRESVDHLTIPSRCGKGSLHRISEVFDCWFESGSMPYAQVHYPFENKREFEDAFPADFIAEGIDQTRGWFYTLLVLATALFGQPPFKNVIVNGLVLASDGQKMSKRKKNYPDPVSIIQKYGADALRLYLINSPVVRAENLRFKEEGVRDVLKDVLLPWYNAYRFLIQNVLRLQKEEEIEFLYNENTVRESPNITDRWILSFMQSLIGFFETEMAAYRLYTVVPRLVKFVDILTNWYVRMNRRRLKGENGMEDCVMALETLFSVLLSLCRLMAPYTPFLTELMYQNLKVLIDPVSVQDKDTLSIHYLMLPRVREELIDKKTESAVSQMQSVIELGRVIRDRKTIPIKYPLKEIVVIHQDPEALKDIKSLEKYIIEELNVRKVTLSTDKNKYGIRLRAEPDHMVLGKRLKGAFKAVMTSIKQLSSEELEQFQKTGTIVVEGHELHDEDIRLMYTFDQATGGTAQFEAHSDAQALVLLDVTPDQSMVDEGMAREVINRIQKLRKKCNLVPTDEITVYYKAKSEGTYLNSVIESHTEFIFTTIKAPLKPYPVSPSDKVLIQEKTQLKGSELEITLTRGSSLPGPACAYVNLNICANGSEQGGVLLLENPKGDNRLDLLKLKSVVTSIFGVKNTELAVFHDETEIQNQTDLLSLSGKTLCVTAGSAPSLINSSSTLLCQYINLQLLNAKPQECLMGTVGTLLLENPLGQNGLTHQGLLYEAAKVFGLRSRKLKLFLNETQTQEITEDIPVKTLNMKTVYVSVLPTTADF [IARS] | -0.178 | 0.0148 | 2.81 | -0.225 | 48.8 | 49.2
MVDREQLVQKARLAEQAERYDDMAAAMKNVTELNEPLSNEERNLLSVAYKNVVGARRSSWRVISSIEQKTSADGNEKKIEMVRAYREKIEKELEAVCQDVLSLLDNYLIKNCSETQYESKVFYLKMKGDYYRYLAEVATGEKRATVVESSEKAYSEAHEISKEHMQPTHPIRLGLALNYSVFYYEIQNAPEQACHLAKTAFDDAIAELDTLNEDSYKDSTLIMQLLRDNLTLWTSDQQDDDGGEGNN [YWHAG] | 0.206 | -2.23 | -4.24 | 0.35 | 55.1 | 54.8
MEATGTWALLLALALLLLLTLALSGTRARGHLPPGPTPLPLLGNLLQLRPGALYSGLMRLSKKYGPVFTIYLGPWRPVVVLVGQEAVREALGGQAEEFSGRGTVAMLEGTFDGHGVFFSNGERWRQLRKFTMLALRDLGMGKREGEELIQAEARCLVETFQGTEGRPFDPSLLLAQATSNVVCSLLFGLRFSYEDKEFQAVVRAAGGTLLGVSSQGGQTYEMFSWFLRPLPGPHKQLLHHVSTLAAFTVRQVQQHQGNLDASGPARDLVDAFLLKMAQEEQNPGTEFTNKNMLMTVIYLLFAGTMTVSTTVGYTLLLLMKYPHVQKWVREELNRELGAGQAPSLGDRTRLPYTDAVLHEAQRLLALVPMGIPRTLMRTTRFRGYTLPQGTEVFPLLGSILHDPNIFKHPEEFNPDRFLDADGRFRKHEAFLPFSLGKRVCLGEGLAKAELFLFFTTILQAFSLESPCPPDTLSLKPTVSGLFNIPPAFQLQVRPTDLHSTTQTR [CYP2S1] | -0.159 | -1.27 | 0.83 | -0.0959 | 57.4 | 57.4
MATRQRESSITSCCSTSSCDADDEGVRGTCEDASLCKRFAVSIGYWHDPYIQHFVRLSKERKAPEINRGYFARVHGVSQLIKAFLRKTECHCQIVNLGAGMDTTFWRLKDEDLLPSKYFEVDFPMIVTRKLHSIKCKPPLSSPILELHSEDTLQMDGHILDSKRYAVIGADLRDLSELEEKLKKCNMNTQLPTLLIAECVLVYMTPEQSANLLKWAANSFERAMFINYEQVNMGDRFGQIMIENLRRRQCDLAGVETCKSLESQKERLLSNGWETASAVDMMELYNRLPRAEVSRIESLEFLDEMELLEQLMRHYCLCWATKGGNELGLKEITY [LCMT1] | -0.123 | 0.211 | 0.493 | 0.181 | 52.1 | 53.5
MCAARLAAAAAAAQSVYAFSARPLAGGEPVSLGSLRGKVLLIENVASLUGTTVRDYTQMNELQRRLGPRGLVVLGFPCNQFGHQENAKNEEILNSLKYVRPGGGFEPNFMLFEKCEVNGAGAHPLFAFLREALPAPSDDATALMTDPKLITWSPVCRNDVAWNFEKFLVGPDGVPLRRYSRRFQTIDIEPDIEALLSQGPSCA [GPX1] | -0.15 | 1.13 | -0.307 | 0.559 | 56.8 | 56.6
MRLFVSDGVPGCLPVLAAAGRARGRAEVLISTVGPEDCVVPFLTRPKVPVLQLDSGNYLFSTSAICRYFFLLSGWEQDDLTNQWLEWEATELQPALSAALYYLVVQGKKGEDVLGSVRRALTHIDHSLSRQNCPFLAGETESLADIVLWGALYPLLQDPAYLPEELSALHSWFQTLSTQEPCQRAAETVLKQQGVLALRPYLQKQPQPSPAEGRAVTNEPEEEELATLSEEEIAMAVTAWEKGLESLPPLRPQQNPVLPVAGERNVLITSALPYVNNVPHLGNIIGCVLSADVFARYSRLRQWNTLYLCGTDEYGTATETKALEEGLTPQEICDKYHIIHADIYRWFNISFDIFGRTTTPQQTKITQDIFQQLLKRGFVLQDTVEQLRCEHCARFLADRFVEGVCPFCGYEEARGDQCDKCGKLINAVELKKPQCKVCRSCPVVQSSQHLFLDLPKLEKRLEEWLGRTLPGSDWTPNAQFITRSWLRDGLKPRCITRDLKWGTPVPLEGFEDKVFYVWFDATIGYLSITANYTDQWERWWKNPEQVDLYQFMAKDNVPFHSLVFPCSALGAEDNYTLVSHLIATEYLNYEDGKFSKSRGVGVFGDMAQDTGIPADIWRFYLLYIRPEGQDSAFSWTDLLLKNNSELLNNLGNFINRAGMFVSKFFGGYVPEMVLTPDDQRLLAHVTLELQHYHQLLEKVRIRDALRSILTISRHGNQYIQVNEPWKRIKGSEADRQRAGTVTGLAVNIAALLSVMLQPYMPTVSATIQAQLQLPPPACSILLTNFLCTLPAGHQIGTVSPLFQKLENDQIESLRQRFGGGQAKTSPKPAVVETVTTAKPQQIQALMDEVTKQGNIVRELKAQKADKNEVAAEVAKLLDLKKQLAVAEGKPPEAPKGKKKK [MARS] | -0.109 | 1.07 | 4.3 | 0.171 | 49.1 | 49.4
MDALNRNQIGPGCQTQTMVQKGPLDLIETGKGLKVQTDKPHLVSLGSGRLSTAITLLPLEEGRTVIGSAARDISLQGPGLAPEHCYIENLRGTLTLYPCGNACTIDGLPVRQPTRLTQGCMLCLGQSTFLRFNHPAEAKWMKSMIPAGGRAPGPPYSPVPAESESLVNGNHTPQTATRGPSACASHSSLVSSIEKDLQEIMDSLVLEEPGAAGKKPAATSPLSPMANGGRYLLSPPTSPGAMSVGSSYENTSPAFSPLSSPASSGSCASHSPSGQEPGPSVPPLVPARSSSYHLALQPPQSRPSGARSESPRLSRKGGHERPPSPGLRGLLTDSPAATVLAEARRATESPRLGGQLPVVAISLSEYPASGALSQPTSIPGSPKFQPPVPAPRNKIGTLQDRPPSPFREPPGSERVLTTSPSRQLVGRTFSDGLATRTLQPPESPRLGRRGLDSMRELPPLSPSLSRRALSPLPTRTTPDPKLNREVAESPRPRRWAAHGASPEDFSLTLGARGRRTRSPSPTLGESLAPHKGSFSGRLSPAYSLGSLTGASPCQSPCVQRKLSSGDLRVPVTRERKNSITEISDNEDDLLEYHRRQRQERLREQEMERLERQRLETILNLCAEYSRADGGPEAGELPSIGEATAALALAGRRPSRGLAGASGRSSEEPGVATQRLWESMERSDEENLKEECSSTESTQQEHEDAPSTKLQGEVLALEEERAQVLGHVEQLKVRVKELEQQLQESAREAEMERALLQGEREAERALLQKEQKAVDQLQEKLVALETGIQKERDKEAEALETETKLFEDLEFQQLERESRVEEERELAGQGLLRSKAELLRSIAKRKERLAILDSQAGQIRAQAVQESERLARDKNASLQLLQKEKEKLTVLERRYHSLTGGRPFPKTTSTLKEMEKLLLPAVDLEQWYQELMAGLGTGPAAASPHSSPPPLPAKASRQLQVYRSKMDGEATSPLPRTRSGPLPSSSGSSSSSSQLSVATLGRSPSPKSALLTQNGTGSLPRNLAATLQDIETKRQLALQQKGQQVIEEQRRRLAELKQKAAAEAQCQWDALHGAAPFPAGPSGFPPLMHHSILHHLPAGRERGEEGEHAYDTLSLESSDSMETSISTGGNSACSPDNMSSASGLDMGKIEEMEKMLKEAHAEKNRLMESREREMELRRQALEEERRRREQVERRLQSESARRQQLVEKEVKMREKQFSQARPLTRYLPIRKEDFDLKTHIESSGHGVDTCLHVVLSSKVCRGYLVKMGGKIKSWKKRWFVFDRLKRTLSYYVDKHETKLKGVIYFQAIEEVYYDHLRSAAKKRFFRFTMVTESPNPALTFCVKTHDRLYYMVAPSAEAMRIWMDVIVTGAEGYTQFMN [PHLDB1] | -0.13 | 0.702 | 1.01 | 0.0569 | 50.8 | 51.1
MAAIPPDSWQPPNVYLETSMGIIVLELYWKHAPKTCKNFAELARRGYYNGTKFHRIIKDFMIQGGDPTGTGRGGASIYGKQFEDELHPDLKFTGAGILAMANAGPDTNGSQFFVTLAPTQWLDGKHTIFGRVCQGIGMVNRVGMVETNSQDRPVDDVKIIKAYPSG [PPIL1] | 0.414 | -0.554 | -0.941 | 0.351 | 49.1 | 50.1

— the supplement of paper PMC5998384
